From publication PMC5790014, “Type IX secretion system PorM and gliding machinery GldM form arches spanning the periplasmic space” (Nature Communications, 2018) come the findings set out here.

The target of series [1] is T1, PorMp315 (PorM periplasmic fragment, domains D3 and D4 in the crystal) (Porphyromonas gingivalis, UniProt B2RLE8).
T1 construct: PorM, Porphyromonas gingivalis, GI 188595218; cloned as residues 224-516, domain D2 was cleaved by a protease during crystallization, the structure spans residues 315-516; Construct cloned as 224-516 (pLIC03); the crystallised species is 315-516
As to the kind of experiment: crystal structure; PorMp315/nb130, 1/1 complex at 10 mg/mL; 0.2 M ammonium citrate tribasic pH 7.0, 20% (w/v) PEG3350; 2.1 Å. Conditions: both partners purified.

Series [2] deals with the molecule itself. Briefly: crystal structure; PorMp224; 0.02 M sodium acetate pH 4.8-5.8, 0.2 M zinc acetate, 15-25% (w/v) PEG3350; 2.85 Å.
Series [3] deals with T2, PorMpNt (N-terminal domain D1 of the PorM periplasmic domain) (Porphyromonas gingivalis (sequence …)).
T2 construct: PorM, Porphyromonas gingivalis, GI 188595218, N-terminal domain D1; residues 30-212 by the results, residues 44-217 by the methods; the first helix (residues 30-69) is missing in the crystal, probably cleaved during crystallization; also called PorMNt
Briefly: crystal structure; PorMNt/nb01, 1/1 complex at 10 mg/mL; 0.1 M Hepes pH 7.5, 0.2 M NaCl, 25% (w/v) PEG3350; 2.4 Å. To be noted: both partners purified.

Series [4] deals with the molecule itself. Briefly: crystal structure; GldMp; sitting-drop vapor diffusion at 293K; 0.1 M Hepes pH 7-8, 26-46% (w/v) PEG 600; 2 Å.
Series [5] concerns the molecule itself. Briefly: crystal structure; PorMp315/nb130, 1/1 complex at 10 mg/mL; 0.2 M ammonium citrate tribasic pH 7.0, 20% (w/v) PEG3350; 2.1 Å.

Broadly, the stoichiometry N is the number of molecules, sites or subunits per partner or assembly.

B1: nanobody nb130 (VHH)
VHH: QVQLVESGGGLVQAGGSLRLSCAASGRTFSSYVMGWFRQAPGKEREFVTAISWSGGSIHYADSVKGRFTISRDNAKNTVYLQMNSLKPEDTAVYTCVAGFAGYGSFTSRSARDSDKYDYWGQGTKVTVSS
notes: llama nanobody raised against PorMp; source: E. coli WK6, periplasmic fraction, purified (Ni-NTA, Superdex 75)
Take B1: in series [1], the binding result was “binds”.

B2: PorMp224 (PorM periplasmic fragment, residues 224-516) (domain or fragment)
chain: RVNSITAQVIPQSQIVMSGDTYKANIVLSSVDTTQRPDVFVNGKLLSPENMGLFTATAGAPGTYPVKGYIEMMGNDGVKIRRDFESEYFVTEPMASVAPTMMNVLYAGIDNPINIAVPGVAQQNVSATINNGTLTRRGNLWIARPTKVGSEAIISVTAQSGGRTIQMAKTTLRVRALPDPLPYIEYKDVQGNTKRFKGGRLGKREILAAGGIKAALDDDLLEVNYTVVKFQLVFYDSMGNSIPEVSDGASFSERQKRQIQNLGKGKRFYVTEVIARGPDGIERKIPAIEVIVN
notes: PorM, Porphyromonas gingivalis, GI 188595218, tryptic fragment of the periplasmic domain, residues 224-516 (domains D2-D4); source: trypsin cleavage of PorMp (made in Rosetta E. coli cells), fragment purified
B2: the binding result in series [2] is “binds”.

B3: nanobody nb01 (VHH)
VHH: DVQLVESGGGLVQAGGSLRVSCAASGRTFSSYSMGWFRQAPGKEREFVAAISRSDNSTYYADSVKGRFTISRDSAKNTVYLQMNSLKPEDTAVYYCAATPYGSRYYLRELREYDYWGQGTQVTVSS
notes: as for B1
On to B3, for which the binding result in series [3] is listed as “binds”.

B4: GldM periplasmic domain (GldMp) (domain or fragment, Flavobacterium johnsoniae, UniProt Q5EGM3 36-513, looked up)
chain: FGLMNEKFEAANTSSVTTNESLLTSLDQKAAEAKGEFAKAAETAHKVQAASKEFYDYIGTLKTQAVKGFEVDKETGKMPYEAMDRGDNIDDWFTGDGYTKKGNEIIAKIEKYKSDIKAALGTDKKYAGIISEVEKKFDVSDVKNKEGIKEKYLAYHFKGFPAIASAAKLSAWQNDVKKTEADVYNSALGKAAVAAASYSNYQAIVVLDKNAYFQGEKVTGKVVLGRYDENTKPTSFQGPGQIVNGQAVISLTAGGVGEQDINGQFTFLEDGKNIPLKFSGKYVVVPRPNSATISADKMNVVYRGVVNPISVSFAGVDANKIVASAPGLSSAGKPGKYNMSPGQGTEATISVTGTLPNGDKVTDKKTFRIKGIPGPTGTIRGEMGVVKGPKSNLEIATIGAKLLDFDFEVGLDVVGFNMKIAGQPTVVVTGNKMNAQCKSVLARAGKGDQVTISEIKTKLVGAGSYLLPRTAPVIYEIQ
notes: GldM, Flavobacterium johnsoniae (ATCC17061), GI 58531935, periplasmic domain, residues 36-513; Cloned into pLIC03 (a pET28a+ derivative); A SeMet derivative was used for phasing
Take B4: in series [4], the “stoichiometry N” value was determined as 2.

B5: PorMp315 (PorM periplasmic fragment, domains D3 and D4 in the crystal) (domain or fragment, Porphyromonas gingivalis, UniProt B2RLE8 315-516, looked up)
chain: EPMASVAPTMMNVLYAGIDNPINIAVPGVAQQNVSATINNGTLTRRGNLWIARPTKVGSEAIISVTAQSGGRTIQMAKTTLRVRALPDPLPYIEYKDVQGNTKRFKGGRLGKREILAAGGIKAALDDDLLEVNYTVVKFQLVFYDSMGNSIPEVSDGASFSERQKRQIQNLGKGKRFYVTEVIARGPDGIERKIPAIEVIVN
notes: PorM, Porphyromonas gingivalis, GI 188595218; cloned as residues 224-516, domain D2 was cleaved by a protease during crystallization, the structure spans residues 315-516; Construct cloned as 224-516 (pLIC03); the crystallised species is 315-516
With B5, the binding result in series [5] is listed as “binds”.
